Changes are numbered by the printed parent chain.
Assays:
[1] = molecular target: T1, human CD40 recombinant protein (Acrobiosystems, CD 0-H5228) (human, UniProt P25942 21-193); assay: direct ELISA, coated human CD40 1 µg/ml, anti-human Fc-HRP
T1 construct: Bought protein
Method: The antibodies were incubated at room temperature for 30 min, and washed 8 times with 0.05% PBS-Tween.

[2] = molecular target: T2, human CD40 expressed on cells (human, UniProt P25942 21-277); assay: cell-based or functional assay
T2 sequence (P25942 21-277): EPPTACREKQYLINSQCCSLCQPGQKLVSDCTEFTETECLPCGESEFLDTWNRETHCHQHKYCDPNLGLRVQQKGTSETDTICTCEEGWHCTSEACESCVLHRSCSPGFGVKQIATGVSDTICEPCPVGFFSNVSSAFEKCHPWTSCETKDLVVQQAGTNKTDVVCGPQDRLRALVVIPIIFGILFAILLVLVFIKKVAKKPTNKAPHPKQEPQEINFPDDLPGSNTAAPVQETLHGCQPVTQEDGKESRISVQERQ

[3] = molecular target: T3, Rhesus monkey CD40 expressed on 293FT cells (Rhesus monkey (Macaca mulatta), UniProt F6SNI1 21-278); assay: flow cytometry on 293FT cells expressing Rhesus CD40
T3 construct: whole, on cells; also called Rhesus CD40
Method: (§1) Cells expressing Rhesus monkey CD40 and human CD40, respectively, were obtained after 48 h of expression.
(§2) GraphPad Prism 6.0 was used to fit the curves and calculate EC50.

[4] = molecular target: T4, human OX40 (Acrobiosystems, OX 0-H5224) (human, UniProt P43489 29-216); assay: direct ELISA, coated human OX40 1 µg/ml, anti-human Fc-HRP
T4 construct: Bought protein
T4 sequence (looked up): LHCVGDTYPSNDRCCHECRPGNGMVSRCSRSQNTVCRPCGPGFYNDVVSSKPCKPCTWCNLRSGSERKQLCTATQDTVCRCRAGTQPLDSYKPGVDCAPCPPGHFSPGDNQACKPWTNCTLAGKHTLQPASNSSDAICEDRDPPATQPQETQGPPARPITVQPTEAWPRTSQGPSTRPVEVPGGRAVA
Method: (§3) PBS solutions containing 1 μg/ml of human OX40 (Acrobiosystems, OX 0-H5224), 4-1BB (Acrobiosystems, 41B-H5227), GITR (Acrobiosystems, GIR-H5228) and CD40 (Acrobiosystems, CD 0-H5228) were coated on the ELISA plates and incubated overnight at 4° C. […] After 30 mins of incubation at room temperature, washing was carried out for 8 times with 0.05% PBS-Tween.

[5] = molecular target: T5, human 4-1BB (Acrobiosystems, 41B-H5227) (human, UniProt Q07011 24-186); assay: direct ELISA, coated human 4-1BB 1 µg/ml, anti-human Fc-HRP
T5 construct: Bought protein
T5 sequence (Q07011 24-186): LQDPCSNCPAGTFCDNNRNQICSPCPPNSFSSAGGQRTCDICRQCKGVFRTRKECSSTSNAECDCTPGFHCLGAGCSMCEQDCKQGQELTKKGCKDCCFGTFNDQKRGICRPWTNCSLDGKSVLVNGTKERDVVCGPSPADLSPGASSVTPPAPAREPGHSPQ
Method: as §3

[6] = molecular target: T1, human CD40 recombinant protein …; assay: SPR (Biacore T200), antibody captured on Protein A chip, CD40 as analyte
Method: The antigen to be tested, i.e. human CD40 recombinant protein (Acrobiosystems, CD 0-H5228) was diluted gradiently with a Running buffer (HBS-EP+, GE) at concentrations of 2 μM, 1 μM, 500 nM, 250 nM, 125 nM, 62.5 nM, 31.25 nM. The above-mentioned CD40 with different concentrations was flowed through the chip on which the antibody was captured at a flow rate of 30 μL/min for 120 s of binding, and then the Running buffer was flowed through the chip at a flow rate of 30 μL/min for 240 s, with the antigen dissociating gradually from the chip on which the antibody was captured. Data processing was performed using BIAevaluation software S200, the necessary software of Biacore T200 instrument and binding constants (Ka), dissociation constants (Kd), and equilibrium dissociation constants (KD) were calculated.

[7] = molecular target: T2, human CD40 expressed on cells; assay: flow cytometry on 293FT cells expressing human CD40
Method: as §1, §2

T1 sequence (P25942 21-193 limits assumed): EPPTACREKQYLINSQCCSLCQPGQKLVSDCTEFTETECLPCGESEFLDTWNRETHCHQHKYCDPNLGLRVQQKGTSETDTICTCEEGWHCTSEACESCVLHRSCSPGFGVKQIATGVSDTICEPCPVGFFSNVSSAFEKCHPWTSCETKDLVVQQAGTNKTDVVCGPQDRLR

B1: HEL (antibody, human IgG1, kappa, V domains shown)
VH: EVQLEQSGAELMKPGASVKISCKATGYTFTTYWIEWIKQRPGHSLEWIGEILPGSDSTYYNEKVKGKVTFTADASSNTAYMQLSSLTSEDSAVYYCARGDGFYVYWGQGTTLTVSS
VL: DIELTQSPATLSVTPGDSVSLSCRASQSISNNLHWYQQKSHESPRLLIKYTSQSMSGIPSRFSGSGSGTDFTLSINSVETEDFGVYFCQQSGSWPRTFGGGTKLDIKR
notes: IgG1 negative control antibody; also called negative control HEL; HEL control antibody
[1]
  binding result: no binding (tested: 500 nM)

B2: NK003-AM-18 (antibody, human IgG1, kappa, V domains shown)
VH: not shown
VL: DVVMTQSPLSLPVTPGESATISCRSSQSLLYSNGYNYLDWYLLKPGQSPQLLIYLGSNRASGVPDRFSGSGSGTDFTLKISRVEAEDVGLYYCMQQLEQPYTFGQGTKLEIKR
[2]
  EC50 of activation of the NF-kB-GFP+hCD40 reporter cell line, cross-linked with goat anti-human Fc: 0.3 nM
  fold improvement of reporter cell activity against wild type NK003: ~10 times

B3: NK003 (antibody, human IgG1, kappa, V domains shown)
VH: not shown
VL: B2 VL with Q96G, Q99T
notes: also called antibody NK003; wild type NK003
[3]
  EC50: 8 nM
[4]
  binding result: no binding
[5]
  binding result: no binding
[6]
  Kd: 331 nM
  koff: 0.0121 s⁻¹
  kon: 36700 M⁻¹ s⁻¹
[7]
  EC50: 10 nM
[2]
  EC50 of activation of the NF-κB-GFP+hCD40 reporter cell line, cross-linked with goat anti-human Fc: 2 nM
  EC50 of apoptosis of Raji cells (CD95 expression, MFI), cross-linked with goat anti-human Fc: 2.6 nM
  EC50 of apoptosis of Ramos cells (CD95 expression, MFI), cross-linked with goat anti-human Fc: 3 nM

B4: NK003-AM-18-EP1 (antibody, human IgG1, kappa, V domains shown)
VH: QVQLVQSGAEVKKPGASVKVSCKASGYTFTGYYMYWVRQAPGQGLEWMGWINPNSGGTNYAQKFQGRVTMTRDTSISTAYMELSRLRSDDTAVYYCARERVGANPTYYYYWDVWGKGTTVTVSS
VL: B2 VL
[2]
  EC50 of activation of the NF-κB-GFP+hCD40 reporter cell line, cross-linked with goat anti-human Fc: 0.35 nM

B5: NK003-AM-9 (antibody, human IgG1, kappa, V domains shown)
VH: not shown
VL: B2 VL with Q95N, Q96G, Q99V
[2]
  EC50 of activation of the NF-kB-GFP+hCD40 reporter cell line, cross-linked with goat anti-human Fc: 0.25 nM
  fold improvement of reporter cell activity against wild type NK003: ~10 times

B6: NK004 (antibody, human IgG1, kappa, V domains shown)
VH: QVQLVESGGGLVQPGRSLRISCAGSGFTFGDSAMHWVRQAPGKGLEWVSGISRNSDTIVYADSVKGRFTISRDNAKNSLYLQMNSLRAEDTALYYCARRSGDHHAMDVWGPGTTVTVSS
VL: ETTLTQSPATLSLSPGERATLSCRASQSVNTYLAWYQQKPGQAPRLLMYDSSSRATGIPDRFSGSGSGTDFTLTISRLEPEDFAVYYCQQYSTVPLTFGGGTKLEIKR
notes: also called antibody NK004
[6]
  Kd: 440 nM
  koff: 0.039 s⁻¹
  kon: 88700 M⁻¹ s⁻¹
[1]
  EC50 (read off the curve): ~0.7 nM
[2]
  EC50 of activation of the NF-κB-GFP+hCD40 reporter cell line, with the addition of the secondary antibody: 4 nM

From patent US20220324988A1 (NANKAI UNIVERSITY, published 2022)
